Results published in publication PMC3012730, “The Actinobacillus pleuropneumoniae HMW1C-Like Glycosyltransferase Mediates N-Linked Glycosylation of the Haemophilus influenzae HMW1 Adhesin” (PLoS ONE, 2010).

What was measured:
[1] = system: O=c1ccn([C@@H]2O[C@H](CO[P@@](=O)(O)O[P@@](=O)(O)O[C@H]3O[C@H](CO)[C@@H](O)[C@H](O)[C@H]3O)[C@@H](O)[C@H]2O)c(=O)[nH]1; experiment: purified protein; conditions: apparent Km, fixed acceptor protein His-HMW1ct (standard 3.2 µM), 50 mM HEPES pH 8.0, 50 mM KCl, 5 mM MgCl2, room temperature
[2] = system: O=c1ccn([C@@H]2O[C@H](COP(=O)(O)OP(=O)(O)O[C@H]3O[C@H](CO)[C@H](O)[C@H](O)[C@H]3O)[C@@H](O)[C@H]2O)c(=O)[nH]1; experiment: purified protein; conditions: apparent Km, fixed acceptor protein His-HMW1ct (standard 3.2 µM), 50 mM HEPES pH 8.0, 50 mM KCl, 5 mM MgCl2, room temperature

## ApHMW1C (Actinobacillus pleuropneumoniae serovar 5b str. L20)
[1]
  Km: 38.9 ± 5.8 µM
  Vmax: 0.109 µmol/min/mg
  kcat: 0.13 ± 0.005 s⁻¹
  kcat/Km: 3300 ± 800 M⁻¹ s⁻¹
[2]
  Km: 147.5 ± 24.8 µM
  Vmax: 0.0643 µmol/min/mg
  kcat: 0.077 ± 0.005 s⁻¹
  kcat/Km: 520 ± 210 M⁻¹ s⁻¹
